According to the nanobody polyreactivity screen of Harvey et al. (2022):

Experiment: yeast display, Sf9 membrane polyspecificity reagent, FACS + sequencing; frameworks hold sequencing errors
Procedure, shortened: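 A synthetic nanobody library was expressed on Saccharomyces cerevisiae BJ5465 by galactose induction for 36–48 hours. The library was stained for 1 hour at 4 °C with 10% biotinylated, detergent-solubilized Sf9 membrane reagent and enriched with streptavidin microbeads before FACS. Low and high (top ~1%) gates were set on anti-HA fluorescence for expression and streptavidin fluorescence for reagent binding, and each polyreactivity label reflects the gate of origin.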

Sequence | polyreactivity (PSR sort gate)
QVQLVESGGVLVQAGGSLRLSCAASGFIFVRYAMGWYRQAPGKERELVAAITSSDSNTNYADSVKGRFTISRDNAKNTVYLQMNSLNPEDTAVYYCNARIYTRRYVPHYGFNYWGQGTQVTVSS | low polyreactivity
QVQLVESGGVLVQAGGSLRLSCAASGFTFVWYAMGWYRQAPGKERELVAAISRRGTRTYYADSVKGRFTISRDNAKNTVYLQMNSLKPEDTALYYCAASNGYQAVTYDYWGQGTQVTVSS | high polyreactivity
QVQLVESGGVLVQAGGSLRLSCAASGGIFNYYAMGWYRQAPGKERELVAAISASGGSTYYADSVKGRFTISRDNAKNTVYLQMNILKPEDTAVYYCAAGLPYGYGYDYWGQGTQVTVSS | low polyreactivity
QVQLVESGGVLVQAGGSLRLSCAASGITFPDYDMGWYIHATGKERELVAAITYRSGSTYYADSVKGRFTISRDNAKNTVFLQMNCLKREDTAVYYCAADWRTKGYDSLGQGTQVTVSS | high polyreactivity
QVQLVESGGVLVQAGGSLRLSCAASGRIFGDNAMGWYRHAPGKERELDADIDSGGRTNYADSVKVRFTISLDNAKNTVYLQMNSLKPEDTAVYYCGRDDIAYLVEYDYWGQGTQVTVSS | low polyreactivity
QVQLVESGGVLVQAGGSLRLSCAASGRIFGENAMGWYRQAPGKEREFVAVISISDASTYYADSVKGRFTISRDNAKNTVYLQMNSLKPEDTAVYYCADDLTDFLYVASDYWGQGTQVTVSS | low polyreactivity
QVQLVESGGVLVQAGGSLRLSCAASGRIFLRNVMGWYRQAPGKERELVAAISSSGGRTYYADSVKGRFTISRDNAKNSVYLQMNSLKPEDTAVYYCANLSSSRLPSEMEYWGQGTQVTVSS | high polyreactivity
QVQLVESGGVLVQAGGSLRLSCAASGRIFQTYAMGWYRQAPGKERELVAAISSRGRTYYADSVKGRFTISRDNAKITVYLQMNSLKREDTAVYYCAARDWSHRPRGYDYWGQGTQVTVSS | high polyreactivity
QVQLVESGGVLVQAGGSLRLSCAASGRIFSAYAMGWYRPAPGKERDLVAAITSVGSTKYADYVKGRFTISRDNAKNTVYLQMNSLKPQDTAVYYCAAEYTRSFYIYYRFGYWGQGTQVTVSS | high polyreactivity
QVQLVESGGVLVQAGGSLRLSCAASGRSFGVYAMGWYRQAPGKEMELVAAISEGGGSTNYADSVKGRFTISRDNAKNTVYLQMNSLKPEDTAVYYCAATYRTGVRRYYSWGQGTQVTVSS | low polyreactivity
QVQLVESGGVLVQAGGSLRLSCAASGRTFGVYAMGWYRQAPGKERELVATITSVDRTNYADSVKGRFTISRDNAKNTVYLQMNSLKTEDTAVYYCAAVGRWPLYYYWGQGTQVTVSS | high polyreactivity
QVQLVESGGVLVQAGGSLRLSCAASGRTFRRNAMGWYRQAPGKERELVAGIRSSGGSTYYADSVKGRFTISRDNAKNTVYLQINSLKQEDTAVYYCNAVGRPRYGHGFDHWGQGTQVTVSS | high polyreactivity
QVQLVESGGVLVQAGGSLRLSCAASGRTLRWYAKGWYRPAPGKERELVAAINWSGTSTYYADSVKGRFTISRDNAKNTVYLQMNSLKPEDTAVYYCAKRVTWNYDWGQGTQVTVSS | high polyreactivity
QVQLVESGGVLVQAGGSLRLSCAASGSIFANNAMGWYRQAPGKERELVATIRSGGTTNYADSVKGRFTISRDNAKNTVYLQMNSLKPEDTAVYYCAVDYVVYADGPLDYWGQGTQVTVSS | low polyreactivity
QVQLVESGGVLVQAGGSLRLSCAASGSIFDSNAMGWYRQAPGKERELVAAISWSGSRTYYADSVKGRFTISRDYAKNTVYLQILSLKPEDTAVYYCAALVRRYGKYDYWGQCTQVTVSS | high polyreactivity
QVQLVESGGVLVQAGGSLRLSCAASGSIFDTYAMGWYRQAPGKERELVAAITWSGSSTYYADSVKGRFTISRDNAKNTVYLQMNSLKQEDTAVYYCAKDYYVEVTTEYDYWGQGTQVTVSS | high polyreactivity

Sequence | polyreactivity (PSR sort gate)
QVQLVESGGVLVQAGGSLRLSCAASGSIFERYDMGWYRQAPGKERELVAAITSAGITYYADSVKGRFTISRDNAKNNVYLQMNSLKPEDTAVYYCAAQGRRGAPYRHVNEGDYWGQGTQVTVSS | low polyreactivity
QVQLVESGGVLVQAGGSLRLSCAASGSIFRGYAMGCYRQAPGKERELVAAINTSGGRTYYADSVKGRFTISRDNAKNTVYLQMIRLKPDDTAVYYCATEYYQAKREDYWGQGTQVTVSS | high polyreactivity
QVQLVESGGVLVQAGGSLRLSCAASGSIFSGYSMGWYRQAPGKERELVAAITWNGGSTYYADSVKGRFTISRDNAKNTVYLQMNILKPEDTAVYYCAAERAARFNYWGQGTQVTVSS | high polyreactivity
QVQLVESGGVLVQAGGSLRLSCAASGSISSVYAMGWYRQAPGKDRELVAGITSGGSTNYADSVKGRFTISRDNAKITVYLQMNSLKPEDTAVYYCAAVYKGAGTHFDVFVKEFDYWRQGTQVTVSS | low polyreactivity
QVQLVESGGVLVQAGGSLRLSCAASGSTFEDYTMGWYRQAPRKVRELVAISTRGGTYYADSVKGRFTSSRDNPKNTVYLQRNSLKPEDTAVYYCNKRFGYYSWDQYSRDYWGQGTQVTVSS | low polyreactivity
QVQLVESGGVLVQAGGSLRLSCAASGSTFGKNTMGWYRQAPGKERELVAAISRGVSTYYAYSVKGRFTISRDNATNTFYLQMNSLKPEDTALYYCAAQEAYRWYGFDFWGQGTQVTVLS | high polyreactivity
QVQLVESGGVLVQAGGSLRLSCAASGSTFGRYTMGWYRQAPGKERELVAVITKSGGSTYYADSVKGRFTISRDNAKNTVYLQMNSLKPEDTAVYYCAAGVAWRFYSWGQGTQVTVSS | high polyreactivity
QVQLVESGGVLVQAGGSLRLSCAASGSTFYPNAMGWYRQAPGQEREFVAAISDGGSTTYADSVKGRFTISRDNAKNTVYLQMNSLKPEDTAVYYCNARVGSYTPSWYYQEFDYWGQGTQVTVSS | low polyreactivity
QVQLVESGGVLVQAGGSLRLSCAASGSTIPYNTMGWYRQAPRKERELVAAITRTSYADTVKGRFTISRDNAKNTVYLEMISLKREDTAVYYCAADKSFYYYLFGYDYWGQGTQVTVSS | low polyreactivity
QVQLVESGGVLVQAGGSLRLSCAASRGIFSGYAMGWYRQAPGKERELVASITRRGSSTYYADSVKGPFTISRDSAKNTVYLQMNSLNPEDTAVYYCHAVLRYHVLYRGYDYWGQGTQLTVSS | high polyreactivity
QVQLVESGGVLVQAGGSLRLSCAPSGRIFNYYAMGWYRQAPGKERELVAAISSSGGRTYYADSVKGRFTISRDNAKNTVYLQMNSLKPEDTAVYYCAAYDSLRYSTYDYWGQGTQVTVSS | high polyreactivity
QVQLVESGGVLVQAGGSLRLSCASSGSTFTKYAMGWYRQAPGKERELVAAISRSGGGTYYADSVKGRFTISRDNAKNTVYLQMNSLKPEDTAVYYCNAALFRGAQFDYWGQGTQVTVSS | high polyreactivity
QVQLVESGGVLVQAGGSLRLSCDASGRIFKYNAMGWYRQAPGKERELVDVITSGVSTYYADSVKGRFTISRDNAKNTVYLQMNSLKPEDTAVYYCAKKYYKVHKFDYWCQGTQVTVSS | low polyreactivity
QVQLVESGGVLVQAGGSLRLSCPASGRTFTYNAMGWYRQAPGKERELVAVITNSGGSTYYADSVKGRFTISRDNPKNTVYLQMNSLKPEDTAVYYCAADYFYRYWYRFYYWGQGTQVTVSS | high polyreactivity
QVQLVESGGVLVQAGGSLRLTCAASASILYVYAMGWYRHAPGKERELVATITGRVVSTNYADSVKGRFTSSRDNAKNTVYLQMNSLKTEDTALYYCAASTRRRRGEYDYCGQGTQVTVSS | high polyreactivity
QVQLVESGGVLVQAGGSLRLTCAASGSNFVTNAMGWYRQAPGKERELVAAISVSGGSTYYADSVKGRFTISRDNAKNTVYLQMNSLKPEDTAVYYCNTVRSPAGHDYWGQGTQVTVSS | low polyreactivity
